The text below walks through data of patent US20260232831A1 (FRONTAIM BIOMEDICINES, published 2026).

As usually defined, the EC50 (read off the curve) is the concentration that produces a half-maximal response. A lower EC50 (read off the curve) goes with a more potent agent.

The target in assay [1] is T1, human Trop2 on the cell surface (A-431, ME-180, MDA-MB-468 cells) (human, UniProt P09758 27-323).
T1 construct: whole, on cells; Endogenous Trop2 on Trop2-positive tumour cell lines used in flow cytometry and cytotoxicity assays; also called TACSTD2; tumor-associated calcium signal transducer 2
T1 sequence (looked up): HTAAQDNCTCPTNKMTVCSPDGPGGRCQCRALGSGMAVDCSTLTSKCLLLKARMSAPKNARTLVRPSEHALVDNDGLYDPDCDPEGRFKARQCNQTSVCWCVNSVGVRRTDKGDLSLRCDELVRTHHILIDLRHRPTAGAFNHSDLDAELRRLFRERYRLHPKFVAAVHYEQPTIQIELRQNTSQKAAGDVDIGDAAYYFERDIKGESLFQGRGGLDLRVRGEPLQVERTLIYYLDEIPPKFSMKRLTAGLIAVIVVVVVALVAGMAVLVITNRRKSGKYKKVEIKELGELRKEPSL
In words: flow cytometry on ME-180 cells, AF488 goat anti-human IgG Fc detection. The procedure:
For CD3 binding, Jurkat cells were dispensed into a 96-well plate at 2×10⁵/well, and incubated with indicated agents at 4° C. for 45 min. After wash with PBS, cells were incubated with AF488 labeled goat anti-human IgG Fe. For Trop2 binding, ME-180 cells were dissociated from culture, dispensed into a 96-well plate at 2×10⁵/well, and incubated with indicated agents at 4° C. for 45 min. After wash with PBS, cells were incubated with AF488 labeled goat anti-human IgG Fc. Binding was analyzed by low cytometry using Attune N×T Flow Cytometer.
After wash with PBS, cells were incubated with a AF488 labeled goat anti-human IgG Fc secondary antibody at 4° C. for another 45 min. After two wash steps, binding was analyzed by flow cytometry using Attune N×T Flow Cytometer.

The target in assay [2] is T1, human Trop2 on the cell surface (A-431, …). In words: flow cytometry on A-431 cells, AF488 goat anti-human IgG Fc detection. The procedure:
All incubations were 45 min at 4° C. plus washes with 1% BSA in PBS between incubations. Binding signal was measured by Attune™ N×T Acoustic Focusing Cytometer (ThermoFisher Scientific).
A general note: In flow cytometry, cells or beads pass a laser one at a time.

Assay [3] concerns the target T2, human CD3 on Jurkat cell surface (human, UniProt P07766 23-207).
T2 construct: whole, on cells; also called cell surface CD3 of Jurkat
In words: flow cytometry on Jurkat cells, AF488 goat anti-human IgG Fc detection. The procedure: For CD3 binding, Jurkat cells were dispensed into a 96-well plate at 2×10⁵/well, and incubated with indicated agents at 4° C. for 45 min. After wash with PBS, cells were incubated with AF488 labeled goat anti-human IgG Fc. […] After wash with PBS, cells were incubated with AF488 labeled goat anti-human IgG Fe.
After wash with PBS, cells were incubated with a AF488 labeled goat anti-human IgG Fc secondary antibody at 4° C. for another 45 min.

Assay [4] deals with T1, human Trop2 on the cell surface (A-431, …). Put plainly: cell-based or functional assay.

T2 sequence (P07766 23-207): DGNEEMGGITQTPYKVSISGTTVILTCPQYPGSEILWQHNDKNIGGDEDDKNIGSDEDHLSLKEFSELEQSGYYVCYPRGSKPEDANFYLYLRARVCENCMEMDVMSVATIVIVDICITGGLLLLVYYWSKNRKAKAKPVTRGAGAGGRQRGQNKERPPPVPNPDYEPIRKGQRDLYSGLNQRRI

B1: humanized anti-Trop2 antibody hL0125 (antibody, V domains shown)
VL: DIQLTQSPAIMSASPGERVTMTCRASSSVSSSYLHWYQQRSGQSPKLLIYSTSNLASGVPARFSGSGSGTDYSLTISSLEAEDAATYYCQQYSGSPLTFGSGTKLEIKR
VH: QVQLQESGGGLVKPGGSLKLSCAASGFTFSSYAMSWVRQTPDKRLEWVAEISSDGFYTYYPDTVTGRFTISRDNAKNTLYLQMSSLRSEDTAMYYCARDGNYVDYAMDYWGQGTSVTVSS
notes: Variable regions were cloned into human IgG expression vectors to give a full-size humanized IgG; also called modular antibody hL0125
As to B1, the 50% effective concentration (EC50 (read off the curve)) in assay [1] was ~6 nM; in assay [2] it was ~10 nM. Moreover, the binding result in assay [3] is “no binding (tested: 20.0 nM)”.

B2: chimeric anti-Trop2 antibody cL0125 (antibody, V domains shown)
VH: VKLQESGGGLVKPGGSLKLSCAASGFTFSSYAMSWVRQSPEKRLEWVAEISSDGFYTYYPDTVTGRFTISRDNAKNTLYLEMSSLRSEDTAMYYCARDGNYVDYAMDYWGQGTSVTVSS
VL: DIQLTQSPAIMSASPGEKVTMTCRASSSVSSSYLHWYQQRSGASPKLWIYSTSNLASGVPARFSGSGSGTSYSLTISSVEAEDAATYYCQQYSGSPLTFGSGTKLEIKR
notes: Chimeric antibody made from the murine L0125 VL and VH
For the molecule B2, the “EC50 (read off the curve)” value in assay [2] was ~10 nM.

B3: bispecific antibody 3scFv×hL0125C (bispecific antibody)
heavy: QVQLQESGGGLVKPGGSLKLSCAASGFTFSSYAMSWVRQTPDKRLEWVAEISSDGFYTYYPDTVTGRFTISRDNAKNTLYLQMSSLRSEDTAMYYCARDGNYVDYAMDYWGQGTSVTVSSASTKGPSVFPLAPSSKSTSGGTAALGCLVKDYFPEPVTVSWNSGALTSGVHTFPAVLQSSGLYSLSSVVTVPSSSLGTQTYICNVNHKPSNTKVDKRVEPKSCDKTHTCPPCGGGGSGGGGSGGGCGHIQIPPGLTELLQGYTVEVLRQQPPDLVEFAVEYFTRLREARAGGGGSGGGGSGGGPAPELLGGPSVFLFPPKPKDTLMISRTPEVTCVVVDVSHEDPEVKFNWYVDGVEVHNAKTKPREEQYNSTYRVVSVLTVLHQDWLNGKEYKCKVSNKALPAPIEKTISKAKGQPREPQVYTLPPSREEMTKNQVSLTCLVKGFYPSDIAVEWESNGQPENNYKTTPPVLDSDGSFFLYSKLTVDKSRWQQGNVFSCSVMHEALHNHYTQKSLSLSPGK
light: DIQLTQSPAIMSASPGERVTMTCRASSSVSSSYLHWYQQRSGQSPKLLIYSTSNLASGVPARFSGSGSGTDYSLTISSLEAEDAATYYCQQYSGSPLTFGSGTKLEIKRTVAAPSVFIFPPSDEQLKSGTASVVCLLNNFYPREAKVQWKVDNALQSGNSQESVTEQDSKDSTYSLSSTLTLSKADYEKHKVYACEVTHQGLSSPVTKSFNRGEC
scFv: not shown
modifications: The AD2 of the scFv is docked on the DDD2 dimer and locked by disulfide bonds; the complex holds 2 heavy chains, 2 light chains and 1 scFv.
notes: hL0125 IgG with DDD2 inserted in the hinge of each heavy chain; The DDD2 dimer docks the AD2 of one anti-CD3 scFv (3scFv), giving a 2+1 format assembled intracellularly; also called Construct C; Format C
Take B3: in assay [1], the “EC50 (read off the curve)” value is ~10 nM. Besides, in assay [4], the “IC50, 60-hour MTS viability assay, BT-474 cells with human PBMCs (10:1)” value is ~0.02 nM; the “IC50, 60-hour MTS viability assay, HCT116 cells with human PBMCs (10:1)” value is ~0.018 nM; the “IC50, 60-hour MTS viability assay, MDA-MB-231 cells with human PBMCs (10:1)” value is ~0.013 nM; the “IC50, 60-hour MTS viability assay, MDA-MB-468 cells with human PBMCs (10:1)” value was ~0.006 nM.
